Assay results reported in the supplement of paper PMC10899765.

How the values were obtained:
Conditions in all cases: 20 nM; 72 h
MCF10A [1] = assay: one-nucleolus phenotype percent effect (relative to siNT 0% and siNOL11 100%); higher = more cells with one nucleolus (ribosome biogenesis inhibition)
Description: (§1)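 After 72 h, cells were fixed and stained with Hoechst and anti-fibrillarin, and nucleoli per nucleus were counted with CellProfiler. Values are plate-adjusted percent effect for the one-nucleolus and 5+ nucleoli phenotypes, normalised to siNT (0%) and to the positive controls siNOL11 or siKIF11 (100%), as the mean of biological triplicates. Percent viability is the nuclei count relative to siNT.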

MCF10A [2] = assay: percent viability (nuclei count relative to siNT); higher = more viable cells
Description: as §1

MCF10A [3] = assay: 5+ nucleoli phenotype percent effect (relative to siNT 0% and siKIF11 100%); higher = more cells with five or more nucleoli
Description: as §1

Sequence	one-nucleolus phenotype percent effect (MCF10A [1]) [%]	percent viability (MCF10A [2]) [%]	5+ nucleoli phenotype percent effect (MCF10A [3]) [%]
CGCCUCUUCAGCGCUGUCUUCC [hsa-miR-2682-3p]	-7.1	75.9	24
CGCCUGCCCAGCCCUCCUGCU [hsa-miR-4763-5p]	11.6	38.1	-11.3
CGCGCCUGCAGGAACUGGUAGA [hsa-miR-6720-3p]	-13.6	57.7	71.3
CGCGCGGCCGUGCUCGGAGCAG [hsa-miR-4479]	54.5	34.8	-37.9
CGCGGGCGCUCCUGGCCGCCGCC [hsa-miR-4767]	-12.9	58.8	26.9
CGCGGGUCGGGGUCUGCAGG [hsa-miR-3621]	-5.2	57.8	-3.13
CGCUCUAGGCACCGCAGCA [hsa-miR-1301-5p]	-24.1	77.5	95.7
CGCUUUGCUCAGCCAGUGUAG [hsa-miR-1251-3p]	18.6	76.2	-13.1
CGGAUGAGCAAAGAAAGUGGUU [hsa-miR-1255b-5p]	-12.5	64.1	45.2
CGGCAACAAGAAACUGCCUGAG [hsa-miR-196a-3p]	37.8	25.1	-32.7
CGGCCCCACGCACCAGGGUAAGA [hsa-miR-874-5p]	-19.8	85.9	38.1
CGGCCCGGGCUGCUGCUGUUCCU [hsa-miR-1538]	-27.8	144	45
CGGCGCCCGUGUCUCCUCCAG [hsa-miR-6789-3p]	-9.93	59.9	32.6
CGGCGCGACCGGCCCGGGG [hsa-miR-4634]	-14.3	71.2	24.7
CGGCUCUGGGUCUGUGGGGA [hsa-miR-760]	7.07	53	-2.61
CGGCUGGAGGUGUGAGGA [hsa-miR-3652]	44.8	24	-23.6
CGGGACUGUAGAGGGCAUGAGC [hsa-miR-8052]	4.6	42.4	28.9
CGGGAGCUGGGGUCUGCAGGU [hsa-miR-6726-5p]	-17.2	73	58.1
CGGGCAUGCUGGGAGAGACUUU [hsa-miR-6862-5p]	31.7	21.6	-13
CGGGCCGGAGGUCAAGGGCGU [hsa-miR-6781-5p]	-2.25	46.3	54.4

Sequence	one-nucleolus phenotype percent effect (MCF10A [1]) [%]	percent viability (MCF10A [2]) [%]	5+ nucleoli phenotype percent effect (MCF10A [3]) [%]
CGGGCGUGGUGGUGGGGG [hsa-miR-1268a]	-19.1	96.6	44.8
CGGGCGUGGUGGUGGGGGUG [hsa-miR-1268b]	8.5	36.5	35.6
CGGGCUGUCCGGAGGGGUCGGCU [hsa-miR-4741]	-21.4	65.1	42.5
CGGGGAGAGAACGCAGUGACGU [hsa-miR-3175]	5.01	33.4	-3.98
CGGGGCAGCUCAGUACAGGAU [hsa-miR-486-3p]	47.2	10.1	-5.42
CGGGGCCAGAGCAGAGAGC [hsa-miR-6845-5p]	9.59	53.6	11.6
CGGGGCCAUGGAGCAGCCUGUGU [hsa-miR-6762-5p]	-11.4	86.4	28.2
CGGGGCCGUAGCACUGUCUGAGA [hsa-miR-128-1-5p]	22.5	26.1	21.2
CGGGGCGGCAGGGGCCUC [hsa-miR-3196]	66	13.7	-24.6
CGGGGGCGGGGCCGAAGCGCG [hsa-miR-1237-5p]	-22	85.4	45.4
CGGGGUCGGCGGCGACGUG [hsa-miR-7704]	-0.45	38.3	9.03
CGGGGUGGGUGAGGUCGGGC [hsa-miR-4651]	2.27	33.5	-1.6
CGGGGUUUUGAGGGCGAGAUGA [hsa-miR-193b-5p]	25.4	46.7	-32.1
CGGGUAGAGAGGGCAGUGGGAGG [hsa-miR-197-5p]	-25.5	44.8	48.2
CGGGUGGAUCACGAUGCAAUUU [hsa-miR-363-5p]	-21.2	4.57	161
CGGGUGGGAGCAGAUCUUAUUGAG [hsa-miR-6766-5p]	-20.9	76.6	56.1
CGGUGAGCGCUCGCUGGC [hsa-miR-4792]	21.1	36.6	-30.2
CGGUGGACUGGAGUGGGUGG [hsa-miR-8071]	22.4	9.26	-15.7
CGUCAACACUUGCUGGUUUCCU [hsa-miR-505-3p]	22.4	33.8	-7.84
CGUCCCACCCCCCACUCCUGU [hsa-miR-4433-5p]	-1.75	40.9	25.6

Sequence	one-nucleolus phenotype percent effect (MCF10A [1]) [%]	percent viability (MCF10A [2]) [%]	5+ nucleoli phenotype percent effect (MCF10A [3]) [%]
CGUCCCGGGGCUGCGCGAGGCA [hsa-miR-4449]	-6.92	75.7	-7.62
CGUCUUACCCAGCAGUGUUUGG [hsa-miR-200c-5p]	-5.6	79	-1.15
CGUGCCACCCUUUUCCCCAG [hsa-miR-1227-3p]	6.65	93.4	-2.5
CGUGGAGGACGAGGAGGAGGC [hsa-miR-7847-3p]	4.16	67.5	-7.84
CGUGGAUAUUCCUUCUAUGUUU [hsa-miR-376b-5p]	9.58	22	-14
CGUGGAUUGUCUGGAUGCAU [hsa-miR-8056]	12.9	41.8	-25.1
CGUGUAUUUGACAAGCUGAGUU [hsa-miR-223-5p]	31.4	20	-35
CGUGUCUUCUGGCUUGAU [hsa-miR-4711-3p]	59.2	17.8	-36.9
CGUGUUCACAGCGGACCUUGAU [hsa-miR-124-5p]	6.24	77.3	-28.6
CUAAGAAGUUGACUGAAG [hsa-miR-3653]	49.1	42	-37.5
CUAAUAGUAUCUACCACAAUAAA [hsa-miR-633]	-23.4	107	35.1
CUACAAAGGGAAGCACUUUCUC [hsa-miR-524-5p]	17.4	41.4	-38.7
CUACAAAGGGAAGCCCUUUC [hsa-miR-520d-5p]	28.4	39.7	-47.9
CUACAGGCUGGAAUGGGCUCA [hsa-miR-7151-3p]	13.6	20.6	2.37
CUACCCCCCAUCCCCCUGUAG [hsa-miR-6798-3p]	-5.24	72.5	-13.9
CUACCCUCGGUCUGCUUACCACA [hsa-miR-7848-3p]	25.5	41.7	-35.7
CUACUUCUACCUGUGUUAUCAU [hsa-miR-3682-5p]	19.8	25.2	-33
CUAGACUGAAGCUCCUUGAGG [hsa-miR-151a-3p]	-1.52	66.5	-6.07
CUAGCACACAGAUACGCCCAGA [hsa-miR-585-5p]	46	36.5	-45.7
CUAGGAGGCCUUGGCC [hsa-miR-4266]	7.31	52.6	-14.2
